Measurements taken from patent US20220127350A1 (NUMAB THERAPEUTICS, published 2022).

Columns and labels:
human IL-17A [1] = molecular target: T1, human IL-17A (human, UniProt Q16552 24-155); assay: competitive ELISA: biotinylated human IL-17A preincubated with the trispecific molecule, then binding to coated IL-17RA detected (blocked ligand: IL-17RA) [right panel]
T1 construct: Recombinant human IL-17A (Peprotech Cat. No. 200-17), disulfide-linked homodimer from E. coli; Biotinylated or RPE-labelled in some assays; also called hIL-17A; IL-17A-RPE (labelled)

human serum albumin [2] = molecular target: T2, human serum albumin (human, UniProt P02768 25-609); assay: SPR (summary table), affinity to HSA at pH 5.5
T2 construct: also called HSA
Experimental: (§1) The binding to human serum albumin (HSA) and cynomolgus serum albumin (CSA) was assessed for purified trispecific molecules by running SPR spectroscopy on a MASS-1 device (Sierra Sensors). HSA was directly immobilized on a high capacity amine sensor chip (Sierra Sensors) and trispecific molecules were injected as analyte using a dose response multicycle kinetic assay with concentrations of the analyte ranging from 0.35 to 90 nM diluted either in running buffer at pH5.5 or pH7.5. Obtained sensorgrams were fitted using the 1:1 binding model. Affinity to CSA was assessed in a similar approach using a CSA immobilized sensor chip.

human TNFα [3] = molecular target: T3, human TNFα (human, UniProt P01375 77-233); assay: SPR (summary table), affinity to human TNF
T3 construct: Biotinylated in the Biacore assay
Experimental: (§2) In this experiment, the biotinylated antigens were captured using the Biotin-CAPture kit from Biacore. After each analyte injection cycle the CAP sensor chip was regenerated and new antigen was captured. Trispecific molecules were injected as analyte using a dose response multicycle kinetic assay with concentrations of the analyte ranging from 0.35 to 90 nM diluted in running buffer. Obtained sensorgrams were fitted using the 1:1 binding model.

human TNFα [4] = molecular target: T3, human TNFα; assay: cell-based or functional assay
human IL-17A [5] = molecular target: T1, human IL-17A; assay: competitive ELISA, blocking of IL-17A/IL-17RA interaction (summary table)
Experimental: (§3) Finally, Tetramethylbenzidine solution was added to develop the plate for 5 to 10 minutes and the reaction was stopped with 1 M HCl. The plate was read at 450 nm and 570 nm (reference wavelength).

human TNFα [6] = molecular target: T3, human TNFα; assay: cell-based or functional assay; remark: listed apart in the source
human IL-17A [7] = molecular target: T1, human IL-17A; assay: competitive ELISA: IL-17RA coated, biotinylated IL-17A preincubated with trispecific molecule
Experimental: as §3

human TNFα [8] = molecular target: T3, human TNFα; assay: SPR (Biacore T200), biotinylated antigen captured (Biotin-CAPture), trispecific as analyte;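 also: multicycle dose-response kinetics, analyte at 0.35–90 nM in running buffer, CAP chip regenerated with fresh antigen each cycle, sensorgrams fitted to a 1:1 binding model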
Experimental: as §2

human IL-17A [9] = molecular target: T1, human IL-17A; assay: as above
Experimental: as §2

human IL-17A [10] = molecular target: T1, human IL-17A; assay: SPR (summary table), affinity to human IL-17, capture setup
Experimental: as §2

human serum albumin [11] = molecular target: T2, human serum albumin; assay: SPR (MASS-1), trispecific immobilised, HSA injected as last analyte
Experimental: (§4) All possible sequences of antigen injection were tested resulting in six possible sequences.
(§5) To evaluate concomitant binding of each antigen to trispecific molecules, the binding level relative to the theoretical Rmax was calculated for each injection using the respective ligand and analyte molecular masses and the immobilization level of the trispecific molecules. The average of the maximum binding relative to theoretical Rmax for each antigen was obtained by averaging individual maximum binding relative to theoretical Rmax obtained for the two injections where the respective antigen was injected as first analyte (in the absence of other bound antigens). Next, the binding relative to the theoretical Rmax of each analyte injection was compared to its average maximum binding to calculate the fraction binding obtained in the presence of other bound antigens. […] The binding levels relative to the theoretical Rmax and the average of maximum binding (binding levels in the absence of other antigens) of each antigen were calculated.

human TNFα [12] = molecular target: T3, human TNFα; assay: SPR (MASS-1), trispecific immobilised, antigens injected sequentially
Experimental: as §4, §5

human serum albumin [13] = molecular target: T2, human serum albumin; assay: as above
Experimental: as §4, §5

human IL-17A [14] = molecular target: T1, human IL-17A; assay: as above
Experimental: as §4, §5

human serum albumin [15] = molecular target: T2, human serum albumin; assay: SPR (MASS-1), HSA immobilised, trispecific as analyte, pH 7.4
Experimental: as §1

human serum albumin [16] = molecular target: T2, human serum albumin; assay: SPR (MASS-1), HSA immobilised, trispecific as analyte, pH 5.5
Experimental: as §1

human TNFα [17] = molecular target: T3, human TNFα; assay: cell-based or functional assay; remark: listed apart in the source
human IL-17A [18] = molecular target: T1, human IL-17A; assay: cell-based or functional assay
cynomolgus monkey IL-17A [19] = molecular target: T4, cynomolgus monkey IL-17A (Macaca fascicularis (cynomolgus monkey)); assay: SPR (Biacore T200)
T4 construct: also called cyno IL-17A; cyno IL17A
Experimental: (§6) After each analyte injection cycle the CAP sensor chip was regenerated and new antigen was captured. The scFvs were injected as analyte using a dose response multi-cycle kinetic assay with concentrations of the analyte ranging from 0.35 to 90 nM diluted in running buffer. Obtained sensorgrams were fitted using the 1:1 binding model. In addition, the scFvs were analyzed in an alternative SPR assay setup (“direct setup”).

human IL-17A [20] = molecular target: T1, human IL-17A; assay: SPR (Biacore T200), direct setup: IL-17A amine-coupled on CM5, scFv as analyte
Experimental: as §6

human IL-17A [21] = molecular target: T1, human IL-17A; assay: cell-based or functional assay; remark: listed apart in the source
human IL-17F = molecular target: T5, human IL-17F (human, UniProt Q96PD4 31-163); assay: competition ELISA: scFv A1 coated, binding of biotinylated IL-17A detected, unlabeled IL-17F titrated as competitor [I) A]
T5 construct: Peprotech Cat. No. 200-25 in the direct ELISA
T5 sequence: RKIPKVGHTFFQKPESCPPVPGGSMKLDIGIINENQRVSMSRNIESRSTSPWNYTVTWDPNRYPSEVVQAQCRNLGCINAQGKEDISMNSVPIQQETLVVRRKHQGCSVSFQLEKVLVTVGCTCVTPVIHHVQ
Text: (§7) For this purpose, the scFvs were coated on a 96-well ELISA plate.

human IL-17A [22] = molecular target: T1, human IL-17A; assay: SPR (Biacore T200), capture setup: biotinylated IL-17A captured, scFv as analyte
Experimental: as §6

human IL-17E = molecular target: T6, human IL-17E (human, UniProt Q9H293 33-177); assay: competition ELISA: scFv A1 coated, binding of biotinylated IL-17A detected, unlabeled IL-17E titrated as competitor [I) A]
T6 construct: also called IL-25
T6 sequence: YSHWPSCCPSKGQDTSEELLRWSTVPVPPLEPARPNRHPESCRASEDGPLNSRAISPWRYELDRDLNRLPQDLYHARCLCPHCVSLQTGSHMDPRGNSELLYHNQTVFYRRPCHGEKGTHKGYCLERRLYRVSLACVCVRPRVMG
Text: as §7

human IL-17C = molecular target: T7, human IL-17C (human, UniProt Q9P0M4 19-197); assay: competition ELISA: scFv A1 coated, binding of biotinylated IL-17A detected, unlabeled IL-17C titrated as competitor [I) B]
T7 sequence: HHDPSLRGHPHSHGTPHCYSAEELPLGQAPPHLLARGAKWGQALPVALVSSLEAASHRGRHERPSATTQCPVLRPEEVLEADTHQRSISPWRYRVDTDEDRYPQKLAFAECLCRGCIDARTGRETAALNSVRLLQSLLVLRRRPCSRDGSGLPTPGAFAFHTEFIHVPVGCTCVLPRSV
Text: as §7

human IL-17B = molecular target: T8, human IL-17B (human, UniProt Q9UHF5 21-180); assay: competition ELISA: scFv A1 coated, binding of biotinylated IL-17A detected, unlabeled IL-17B titrated as competitor [I) B]
T8 sequence: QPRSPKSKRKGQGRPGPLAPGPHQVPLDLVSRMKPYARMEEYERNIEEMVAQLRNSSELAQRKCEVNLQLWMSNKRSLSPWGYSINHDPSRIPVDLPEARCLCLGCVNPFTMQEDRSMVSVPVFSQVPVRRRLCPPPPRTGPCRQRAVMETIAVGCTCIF
Text: as §7

human IL-17A [23] = molecular target: T1, human IL-17A; assay: competitive ELISA: IL-17RA coated, biotinylated IL-17A preincubated with scFv
Experimental: Finally, Tetramethylbenzidin solution (KPL, Cat. No. 53-00-00) was added to develop the plate for 5 to 10 minutes and the reaction was stopped with 1 M HCl. The plate was read using a microtiter plate reader (Infinity reader M200 Pro, Tecan) at a wavelength of 450 nm and 570 nm (reference wavelength).

human IL-17D = molecular target: T9, human IL-17D (human, UniProt Q8TAD2 16-202, limits assumed); assay: competition ELISA: scFv A1 coated, binding of biotinylated IL-17A detected, unlabeled IL-17D titrated as competitor [I) A]
T9 sequence: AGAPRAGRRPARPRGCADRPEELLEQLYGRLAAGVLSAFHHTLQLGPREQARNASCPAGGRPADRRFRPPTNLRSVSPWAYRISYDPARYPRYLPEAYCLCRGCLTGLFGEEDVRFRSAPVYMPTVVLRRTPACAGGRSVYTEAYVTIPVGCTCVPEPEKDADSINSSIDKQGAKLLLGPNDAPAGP
Text: as §7

cynomolgus monkey IL-17A [24] = molecular target: T4, cynomolgus monkey IL-17A; assay: SPR (Biacore T200), cynomolgus IL-17A, scFv as analyte
Experimental: as §6

B1: A8 (trispecific scDb-scFv) (other)
chain: DIQMTQSPSSLSASVGDRVTITCQSSESVYSNNQLSWYQQKPGQPPKLLIYDASDLASGVPSRFSGSGSGTDFTLTISSLQPEDFATYYCAGGFSSSSDTAFGGGTKLTVLGGGGGSEVQLVESGGGLVQPGGSLRLSCAASGIDFSTYGISWVRQAPGKGLEWIAYIYPDYGITDYASWVNGRFTISLDNAQNTVYLQMNSLRAEDTAVYYCARSGSYYSRGWGAHYFNLWGQGTLVTVSSGGGGSGGGGSGGGGSGGGGSDIQMTQSPSSLSASVGDRVTINCQASESISSWLAWYQQKPGKRPKLLIYKASTLASGVPSRFSGSGSGTDYTLTISSLQPEDFATYYCQGYYLDSSVDDNVFGGGTKLTVLGGGGGSEVQLVESGGGLVQPGGSLRLSCAASGFSLSSNAMGWVRQAPGKGLEYIGIISVGGFTYYASWAKGRFTISRDNSKNTVYLQMNSLRAEDTATYFCARDRHGGDSSGAFYLWGQGTLVTVSSGGGGSGGGGSDIQMTQSPSSLSASVGDRVTITCQASQTINYWLAWYQQKPGKAPKLLIYRASTLASGVPSRFSGSGSGTDFTLTISSLQPEDFATYYCQNYYYSTSRSYGFGGGTKLTVLGGGGGSGGGGSGGGGSGGGGSEVQLVESGGGLVQPGGSLRLSCAASGFSFSSDYWMCWVRQAPGKGLEWIGCIYAGDVDDTDYASWARGRFTISRDNSKNTVYLQMNSLRAEDTAVYYCARVDGFDITYFDLWGQGTLVTVSS
notes: Single chain
Human IL-17A [1]
  IC50 (read off the curve): ~5 ng/mL
Human serum albumin [2]
  Kd: 0.799 nM
Human TNFα [3]
  Kd: 0.185 nM
Human TNFα [4]
  IC50 in L929 assay, cell viability: 0.03 nM
  rel. IC50 in L929 assay (IC50, A13/IC50, test sample, nM): 0.4
Human IL-17A [5]
  rel. IC50 (IC50, secukinumab/IC50, test sample, ng/ml): 10.2
Human TNFα [6]
  potency to neutralize TNFα compared to A7: ~2 fold
Human IL-17A [7]
  rel. IC50 to secukinumab (IC50, secukinumab/IC50, test sample, ng/ml): 10.2
Human TNFα [8]
  Kd: 0.185 nM
  koff: 4.06e-05 s⁻¹
  kon: 219000 M⁻¹ s⁻¹
Human IL-17A [9]
  Kd: 0.483 nM
  koff: 8.36e-05 s⁻¹
  kon: 173000 M⁻¹ s⁻¹
Human IL-17A [10]
  Kd: 0.483 nM
Human serum albumin [11]
  relative binding level compared to average maximum binding: ~70%
Human TNFα [12]
  antigen binding relative to average maximum binding: ≥ 70%
Human serum albumin [13]
  antigen binding relative to average maximum binding: ≥ 70%
Human IL-17A [14]
  antigen binding relative to average maximum binding: ≥ 70%
Human serum albumin [15]
  Kd: 1.42 nM
  koff: 0.00044 s⁻¹
  kon: 310000 M⁻¹ s⁻¹
Human serum albumin [16]
  Kd: 0.799 nM
  koff: 0.000375 s⁻¹
  kon: 469000 M⁻¹ s⁻¹
Human TNFα [17]
  rel. IC50 to A13 (nM) in HT-29 assay, +HSA: 4.6
  rel. IC50 to A13 (nM) in HT-29 assay, -HSA: 3.9
Human IL-17A [18]
  rel. IC50 to secukinumab (ng/ml) in HT-29 assay, +HSA: 304
  rel. IC50 to secukinumab (ng/ml) in HT-29 assay, -HSA: 44.1

B2: A1 (humanized anti-IL-17A scFv, CDR graft of 27-07-G02) (scFv)
scFv: DIQMTQSPSSLSASVGDRVTITCQASQTINYWLAWYQQKPGKAPKLLIYRASTLASGVPSRFSGSGSGTDFTLTISSLQPEDFATYYCQNYYYSTSRSYGFGGGTKLTVLGGGGGSGGGGSGGGGSGGGGSEVQLVESGGGLVQPGGSLRLSCAASGFSFSSDYWMCWVRQAPGKGLEWIGCIYAGDVDDTDYASWARGRFTISRDNSKNTVYLQMNSLRAEDTAVYYCARVDGFDITYFDLWGQGTLVTVSS
notes: VL-linker-VH; also called 27-07-G02-sc01; 27_07_G02_sc01
Cynomolgus monkey IL-17A [19]
  KD, cyno/KD, human: 3.66
Human IL-17A [20]
  Kd: 0.139 nM
  koff: 0.000102 s⁻¹
  kon: 737000 M⁻¹ s⁻¹
Human IL-17A [21]
  IC50 in HT-29 assay, GRO-α secretion: 0.2 ng/mL
Human IL-17F
  binding result: no binding (tested: about 20000 ng/mL)
Human IL-17A [22]
  Kd: 0.247 nM
  koff: 0.000112 s⁻¹
  kon: 455000 M⁻¹ s⁻¹
Human IL-17E
  binding result: no binding (tested: about 20000 ng/mL)
Human IL-17C
  binding result: no binding (tested: about 100000 ng/mL)
Human IL-17B
  binding result: no binding (tested: about 100000 ng/mL)
Human IL-17A [23]
  IC50: 2 ng/mL
Human IL-17D
  binding result: no binding (tested: about 100000 ng/mL on the axis)
Cynomolgus monkey IL-17A [24]
  Kd: 0.905 nM
  koff: 0.000261 s⁻¹
  kon: 288000 M⁻¹ s⁻¹
